Test results from US20030124152A1.

Target: Human collagen Type I (acid soluble) (human) (UniProt P02452)
Experiment: cell-based or functional assay

Sequence of UniProt P02452 (P02452 162-1218 limits assumed, chain 1 of 2): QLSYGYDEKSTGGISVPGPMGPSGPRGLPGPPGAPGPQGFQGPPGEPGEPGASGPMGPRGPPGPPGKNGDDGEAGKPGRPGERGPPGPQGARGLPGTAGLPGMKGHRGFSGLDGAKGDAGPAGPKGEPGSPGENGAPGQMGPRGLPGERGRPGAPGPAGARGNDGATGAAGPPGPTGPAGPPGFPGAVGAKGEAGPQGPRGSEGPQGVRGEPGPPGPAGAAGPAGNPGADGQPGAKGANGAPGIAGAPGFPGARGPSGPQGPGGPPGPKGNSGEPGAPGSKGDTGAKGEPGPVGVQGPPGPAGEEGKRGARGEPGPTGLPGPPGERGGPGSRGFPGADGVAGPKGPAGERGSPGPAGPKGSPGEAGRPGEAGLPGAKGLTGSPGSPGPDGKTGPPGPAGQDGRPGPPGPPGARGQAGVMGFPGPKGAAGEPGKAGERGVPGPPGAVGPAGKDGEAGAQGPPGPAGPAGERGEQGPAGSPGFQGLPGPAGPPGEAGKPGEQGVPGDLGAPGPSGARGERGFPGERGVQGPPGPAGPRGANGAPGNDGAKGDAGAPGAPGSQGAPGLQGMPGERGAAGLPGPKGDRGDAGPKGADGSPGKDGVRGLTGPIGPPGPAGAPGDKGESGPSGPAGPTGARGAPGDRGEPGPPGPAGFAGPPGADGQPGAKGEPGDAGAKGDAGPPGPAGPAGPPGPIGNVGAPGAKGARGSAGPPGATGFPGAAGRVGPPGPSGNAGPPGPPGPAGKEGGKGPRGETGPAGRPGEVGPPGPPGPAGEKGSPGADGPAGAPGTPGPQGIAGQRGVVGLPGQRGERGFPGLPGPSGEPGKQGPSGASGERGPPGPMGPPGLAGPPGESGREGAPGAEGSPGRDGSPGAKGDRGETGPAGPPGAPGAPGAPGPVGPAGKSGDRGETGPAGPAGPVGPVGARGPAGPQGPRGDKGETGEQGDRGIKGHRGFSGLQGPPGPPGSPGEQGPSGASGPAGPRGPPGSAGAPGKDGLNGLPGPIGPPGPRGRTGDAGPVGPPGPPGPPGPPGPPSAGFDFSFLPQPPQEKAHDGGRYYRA
Sequence of UniProt P02452 (P08123 80-1119 limits assumed, chain 2 of 2, further chain): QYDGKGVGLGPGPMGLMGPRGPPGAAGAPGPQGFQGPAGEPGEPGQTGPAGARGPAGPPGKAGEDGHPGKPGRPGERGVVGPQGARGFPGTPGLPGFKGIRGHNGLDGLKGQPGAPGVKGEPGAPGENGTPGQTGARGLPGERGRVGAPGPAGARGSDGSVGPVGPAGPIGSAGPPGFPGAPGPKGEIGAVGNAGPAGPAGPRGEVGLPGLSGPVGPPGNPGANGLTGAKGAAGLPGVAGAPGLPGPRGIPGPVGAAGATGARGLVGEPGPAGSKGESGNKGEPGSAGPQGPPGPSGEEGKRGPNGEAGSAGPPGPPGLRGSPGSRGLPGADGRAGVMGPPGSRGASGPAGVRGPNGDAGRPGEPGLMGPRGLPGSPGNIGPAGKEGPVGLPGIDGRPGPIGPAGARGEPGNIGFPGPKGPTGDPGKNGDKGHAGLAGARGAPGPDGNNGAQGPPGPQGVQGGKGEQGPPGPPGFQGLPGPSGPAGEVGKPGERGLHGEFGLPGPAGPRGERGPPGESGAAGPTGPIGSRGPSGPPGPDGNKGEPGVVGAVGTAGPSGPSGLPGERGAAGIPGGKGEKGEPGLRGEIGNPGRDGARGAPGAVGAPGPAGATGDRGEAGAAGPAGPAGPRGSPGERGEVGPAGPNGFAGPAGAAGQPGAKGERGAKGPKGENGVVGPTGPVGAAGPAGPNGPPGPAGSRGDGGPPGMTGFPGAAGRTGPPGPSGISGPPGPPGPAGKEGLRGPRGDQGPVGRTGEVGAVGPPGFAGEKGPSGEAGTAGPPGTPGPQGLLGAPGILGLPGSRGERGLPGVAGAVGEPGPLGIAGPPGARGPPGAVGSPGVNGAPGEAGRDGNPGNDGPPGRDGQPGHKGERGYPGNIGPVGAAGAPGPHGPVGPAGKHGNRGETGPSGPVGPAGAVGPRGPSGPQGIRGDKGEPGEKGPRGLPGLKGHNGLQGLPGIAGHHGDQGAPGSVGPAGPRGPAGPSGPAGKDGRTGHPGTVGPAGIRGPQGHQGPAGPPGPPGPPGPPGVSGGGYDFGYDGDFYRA

Collagen Protection Assay, collagen band density, C + D + Z, 0 min (optical density/mm^2): 10.4
Collagen Protection Assay, collagen band density, C + D + Z, 30 min (optical density/mm^2): 9.37
Collagen Protection Assay, collagen band density, C + D + Z, 60 min (optical density/mm^2): 5.89
Collagen Protection Assay, collagen band density, C + D + Z, 90 min (optical density/mm^2): 1.67
Collagen Type I Degradation Rate (%), C + D + Z, 30 min: 9.49%
Collagen Type I Degradation Rate (%), C + D + Z, 60 min: 37.1%
Collagen Type I Degradation Rate (%), C + D + Z, 90 min: 71.6%
B1: human decorin core protein (HDCP) (protein)
chain: VEASGIGPEVPDDRDFEPSLGPVCPFRCQCHLRVVQCSDLGLDKVPKDLPPDTTLLDLQNNKITEIKDGDFKNLKNLHALILVNNKISKVSPGAFTPLVKLERLYLSKNQLKELPEKMPKTLQELRAHENEITKVRKVTFNGLNQMIVIELGTNPLKSSGIENGAFQGMKKLSYIRIADTNITSIPQGLPPSLTELHLDGNKISRVDAASLKGLNNLAKLGLSFNSISAVDNGSLANTPHLRELHLDNNKLTRVPGGLAEHKYIQVVYLHNNNISVVGSSDFCPPGHNTKKASYSGVSLFSNPVQYWEIQPSTFRCVYVRSAIQLGNYK
modifications: possible initiator Met
